T1: human LIGHT (hLIGHT), cell surface-expressed, full length (UniProt O43557 1-240)
T1 chain: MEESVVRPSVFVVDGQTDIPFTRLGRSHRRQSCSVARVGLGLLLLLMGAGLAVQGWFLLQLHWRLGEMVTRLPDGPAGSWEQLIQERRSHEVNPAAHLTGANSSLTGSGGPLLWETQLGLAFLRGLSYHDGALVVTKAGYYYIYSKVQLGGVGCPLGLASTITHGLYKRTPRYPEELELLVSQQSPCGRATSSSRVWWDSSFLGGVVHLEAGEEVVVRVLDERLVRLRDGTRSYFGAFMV

B1: recombinant single kappa chain antibody of E1 heavy chain paired with Elkappa(B) (antibody, V domains shown)
VH: EVQLVESGGGLVQPGGSLRLSCAASGFTFSRFNMNWVRQAPGKGLEWVSYISSSSYTIYYADSVKGRFTISRDNAKNSLDLQMNSLRDEDTAVYYCARSIAAAFDYWGQGALVTVSS
VL: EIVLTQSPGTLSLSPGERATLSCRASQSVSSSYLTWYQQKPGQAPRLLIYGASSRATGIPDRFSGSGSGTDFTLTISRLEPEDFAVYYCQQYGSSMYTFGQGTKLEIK
B2: E1 antibody (produced by hybridoma 124 E1, ATCC Accession No. PTA-7729) (antibody, V domains shown)
VH: EVQLVESGGGLVQPGGSLRLSCAASGFTFSRFNMNWVRQAPGKGLEWVSYISSSSYTIYYADSVKGRFTISRDNAKNSLDLQMNSLRDEDTAVYYCARSIAAAFDYWGQGALVTVSS
VL: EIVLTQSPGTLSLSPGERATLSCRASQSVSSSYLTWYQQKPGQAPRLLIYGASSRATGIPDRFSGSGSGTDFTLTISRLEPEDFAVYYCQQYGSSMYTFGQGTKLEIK

Target: T1, human LIGHT (hLIGHT), cell …
Test: FACS binding; 293-hLIGHT cells

Row | Binder | EC50
1 | B1 | 0.547 µg/mL
2 | B2 | 0.463 µg/mL
